{"source": "patent US20140302070A1", "key": {"[1]": {"target": "MHC class I H2-K^d-… (HIV-1; mouse) (UniProt P01902)"}, "[2]": {"target": "MHC class I H2-K^d-… (HIV-1; mouse) (UniProt P01902)", "experiment": "H2-K^d-… tetramer staining of splenocytes, flow cytometry"}}}
{"substance": "splenocytes (T cells) of mice immunized with human sΔ42PD1-p24fc DNA (cells without a defined receptor)", "values": [{"measurement": "IFN-γ ELISPOT (fold against the p24fc-immunized group)", "setting": "[1]", "result": 10}]}
{"substance": "splenocytes (T cells) of mice vaccinated with msΔ42PD1-p24fc DNA (cells without a defined receptor)", "values": [{"measurement": "frequency of p24-specific tetramer^+ CD8^+ T cells", "setting": "[2]", "result": 17, "unit": "%"}]}
